Legend:
JNK = assay: Luminex signalling assay in SH-SY5Y; format: cell-based, human; details: G79 100 ng/ml and 20 μg/ml, BDNF 20 ng/ml; 30 min, 1 h, 2 h, 6 h
From the text: (§1) The human neuroblastoma cell line SH-SY5Y was used to perform Luminex signalling assays using the 10-Plex MAPK/SAPK Signaling Kit-Phosphoprotein (Millipore). This cell line expresses the TrkB receptor and the MAPK/SAPK signalling pathway is typically activated by the tyrosinkinase receptors. The phosphoprotein antibodies included into the kit are the following: ERK/MAP kinase (Thr185/Tyr187); STAT-1 (Tyr701); JNK (Thr183/Tyr185); MEK-1 (Ser212); ATF-2 (Thr69/71); p53 (Ser15); HSP27 (Ser78); c-Jun (Ser73); p38 (Thr180/Tyr182), p70 S6 kinase (Thr412); IkBα (Ser32) (purchased from Millipore).
(§2) The cells were propagated and then seeded into 24-well plates (30.000 cell/well). After 24 hours, the cells were treated with two different concentrations of NGF-receptor agonist G79: 100 ng/ml and 20 μg/ml. After adding G79 into the medium, the cells were collected in the lysis buffer of the kit at the following time points: 30 min, 1 h, 2 h, and 6 h. The assay was performed in this way to assess both time and dose effects comparing the treated samples with the untreated cells used as negative controls (unstimulated SH-SY5Y cells). BDNF was used as positive control at the concentration 20 ng/ml, which is the best working concentration known in literature. In the Luminex plate, each sample was added into a well in duplicate. After adding all the samples, the specific positive and negative controls of phosphorilation, included in the Luminex kit, were added. The assay buffer was also added in duplicate, as a background controls.
(§3) In the circles are the activated factors, while in the grey circles are the tested factors. Its effects of the SY-SY5Y cell line in the phosphorilation of several pathways were assessed using xMAP assay from Luminex. […] The levels of activation are expressed as Median Fluorescence Intensity (MFI).

HSP-27 = assay: Luminex signalling assay in SH-SY5Y; format: cell-based, human; details: G79 100 ng/ml and 20 μg/ml, BDNF 20 ng/ml; 30 min, 1 h, 2 h, 6 h
From the text: as §1, §2, §3

STAT-1 = assay: Luminex signalling assay in SH-SY5Y; format: cell-based, human; details: G79 100 ng/ml and 20 μg/ml, BDNF 20 ng/ml; 30 min, 1 h, 2 h, 6 h
From the text: as §1, §2, §3

ATF-2 = assay: Luminex signalling assay in SH-SY5Y; format: cell-based, human; details: G79 100 ng/ml and 20 μg/ml, BDNF 20 ng/ml; 30 min, 1 h, 2 h, 6 h
From the text: as §1, §2, §3

NSC-34 cells = assay: In vitro model of ALS, serum deprivation of motoneuron-like cells (MTT); format: cell-based, mouse; details: BDNF 20 ng/ml; serum deprivation 48 h
Experimental: Mouse motoneuron-like cells NCS-34 were cultured in DMEM (Gibco) supplemented with 10% heat inactivated FBS and 1% penicillin/streptomycin. The cell culture was maintained in a humidified atmosphere of 95% air and CO2 at 37° C.
The nutritional deprivation stress in motorneurons was conducted as described previously in Masahito T. et al., J. Neuropathol. Exp. Neurol. 65(8):816-825 (2006). To assess the effect of trophic stress condition on ALS, the presence of apoptosis was investigated using serum deprivation. NSC-34 cells were seeded in 24-well poly-lysinated plates at 30,000 cells/well and preincubated for 24 h in DMEM plus 10% FBS with various doses of G79, G80, and G81 (20 ng/ml, 100 ng/ml, 2 μg/ml, 20 μg/ml, 50 μg/ml), and G-CSF (2 μg/ml) or BDNF (20 ng/ml) which both were used as positive controls (Masahito T. et al., ibid; Elliot J. L., Neurobiology of Disease 6:310-320 (1999)). Then, the medium was removed and replaced with fresh DMEM without FBS. After 48 h, cell viability was assayed by MTT assay, as described previously.

SH-SY5Y cells = assay: Parkinson's disease in vitro model (MPTP stress, MTT); format: cell-based, human; details: MPTP 100 μM, 24 hrs; pre-treated 3 hours; BDNF 20 ng/ml
Experimental: The human neuroblastoma cell line SH-SY5Y was maintained in culture with 50% Ham's F12 medium and 50% EMEM medium, supplemented with 10% FBS, […] L-glutamine and 1% penicillin/streptomycin. The cell culture was maintained in a humidified atmosphere of 95% air and CO2 at 37° C.
The SH-SY5Y cells after differentiation to neuronal phenotype with retinoic acid, were pre-treated for 3 hours with the test compounds at different concentrations (20 ng/ml, 100 ng/ml, 2 μg/ml, 20 μg/ml and 50 μg/ml) or BDNF (20 ng/ml) as a positive control. Then 1-methyl-4-phenyl-1,2,3,6-tetrahydropyridine (MPTP) (100 μM) was added and incubated for 24 hrs. The number of surviving cells was determined the day after by 3-(4,5-dimethylthiazol-2-yl)-2,5-diphenyltetrazolium bromide (MTT) assay.

B1: BDNF: brain-derived neurotrophic factor, neurotrophin used as positive control (protein, UniProt P23560 19-247, looked up)
Neurotrophic factor BDNF …: APMKEANIRGQGGLAYPGVRTHGTLESVNGPKAGSRGLTSLADTFEHVIEELLDEDQKVRPNEENNKDADLYTSRVMLSSQVPLEPPLLFLLEEYKNYLDAANMSMRVRRHSDPARRGELSVCDSISEWVTAADKKTAVDMSGGTVTVLEKVPVSKGQLKQYFYETKCNPMGYTKEGCRGIDKRHWNSQCRTTQSYVRALTMDSKKRIGWRFIRIDTSCVCTLTIKRGR
What does the source list for B1?
JNK phospho-activation (MFI) compared to unstimulated control (JNK): significant JNK activation at 2 h after treatment; HSP-27 phospho-activation (MFI) compared to unstimulated control (HSP-27): does not activate HSP-27; STAT-1 phospho-activation (MFI) compared to unstimulated control (STAT-1): did not activate STAT-1; ATF-2 phospho-activation (MFI) compared to unstimulated control (ATF-2): significant ATF-2 activation at 2 h after treatment; cell viability, percentage relative to the control without stress (NSC-34 cells): 80.62±5.2%; protection of neuronal cells against MPTP (surviving cells, MTT) (SH-SY5Y cells): significant protection of neuronal cells

Reference: patent US10106577B2, “Agonists of neurotrophin receptors and their use as medicaments” (BIONURE FARMA, S.L., priority 2010, dated 2018)
